According to patent publication US20200171161A1 (Bicycle, published 2020):
Numbered stars: 1 amine (or outer) side, 2 acyl side, 3 side chain; on linkers, the order of the positions; unused ones are H or OH. Bridge positions count the residues as written; N and C are the ends. Square brackets hold non-standard residues; d marks the D form. Ends that are not written are not given here. * marks the point of attachment. DOTA = O=C(O)CN1CCN(CC(=O)O)CCN(CC(=O)*)CCN(CC(=O)O)CC1; Phe(4-Br) = N[C@@H](Cc1ccc(Br)cc1)C(=O)O; 1Nal = N[C@@H](Cc1cccc2ccccc12)C(=O)O; TBMB = c1c(C[*:1])cc(C[*:3])cc1C[*:2]; Tle = CC(C)(C)[C@H](N)C(=O)O; βAla = NCCC(=O)O; Sar = CNCC(=O)O

Columns and labels:
[1] = molecular target: T1, human MT1-MMP hemopexin domain (hemopexin-like repeats, residues Cys319-Gly511), N-terminally His6-tagged … (human, UniProt P50281 319-511); assay: FP competition vs MT1-MMP hemopexin domain (tracer not given)
T1 construct: range 319-511; Secreted from HEK293 cells; also called hemopexin protein; MT1-MMP (=MMP-14); not shown: N-terminal His6 tag from pEXPR-IBA42 vector
Protocol: (§1) Subsequently, the non-fluorescent competitor bicyclic peptide (usually just the bicycle core sequence) is titrated, such that it displaces the fluorescent tracer from the target protein. The displacement of the tracer is measured and associated with a drop in fluorescence polarisation. The drop in fluorescence polarisation is proportional to the fraction of target protein bound with the non-fluorescent titrant, and thus is a measure of the affinity of titrant to target protein.

[2] = molecular target: T1, human MT1-MMP hemopexin domain …; assay: Kd, method not named in table (FP competition by the methods)
[3] = molecular target: T2, dog MT1-MMP hemopexin domain (dog); assay: FP competition, dog hemopexin domain
T2 construct: domain: hemopexin domain
Protocol: as §1

Binder | Kd [1] | Kd [3] | also measured
{DOTA}-AC[dA]NE[1Nal][dA]CEDF[Phe(4-Br)]D[Tle]C-NH2 (linker 2-8-15 via TBMB; SMILES C[C@H](NC(=O)CN1CCN(CC(=O)O)CCN(CC(=O)O)CCN(CC(=O)O)CC1)C(=O)N[C@H]1CSCc2cc3cc(c2)CSC[C@H](NC(=O)[C@@H](C)NC(=O)[C@H](Cc2cccc4ccccc24)NC(=O)[C@H](CCC(=O)O)NC(=O)[C@H](CC(N)=O)NC(=O)[C@@H](C)NC1=O)C(=O)N[C@@H](CCC(=O)O)C(=O)N[C@@H](CC(=O)O)C(=O)N[C@@H](Cc1ccccc1)C(=O)N[C@@H](Cc1ccc(Br)cc1)C(=O)N[C@@H](CC(=O)O)C(=O)N[C@@H](C(C)(C)C)C(=O)N[C@H](C(N)=O)CSC3) [17-69-07-N248, DOTA-A-(17-69-07) D-Ala1 1Nal4 D-Ala5 4BrPhe9 tBuGly11] |  |  | Kd [2]: 0.5 nM
Ac-CYNEFGCEDFYD[Tle]C-NH2 (linker 1-7-14 via TBMB) [17-69-07-N100, Ac-(17-69-07) tBuGly11] | 1.56 nM |  | 
G[Sar][Sar][Sar][Sar][Sar][Sar][Sar][Sar][Sar][Sar]ACYNEFGCEDFYDIC-NH2 (linker 13-19-26 via TBMB) [17-69-07-N219, G-Sar10-A-(17-69-07) (non-stabilised with spacer)] |  | 0.9 nM | 

The next lines start with results.

Kd [1] | Kd [3] | Binder | also measured
0.8 nM |  | Ac-C[dA]NE[1Nal][dA]CEDF[Phe(4-Br)]D[Tle]C-NH2 (linker 1-7-14 via TBMB; SMILES CC(=O)N[C@H]1CSCc2cc3cc(c2)CSC[C@H](NC(=O)[C@@H](C)NC(=O)[C@H](Cc2cccc4ccccc24)NC(=O)[C@H](CCC(=O)O)NC(=O)[C@H](CC(N)=O)NC(=O)[C@@H](C)NC1=O)C(=O)N[C@@H](CCC(=O)O)C(=O)N[C@@H](CC(=O)O)C(=O)N[C@@H](Cc1ccccc1)C(=O)N[C@@H](Cc1ccc(Br)cc1)C(=O)N[C@@H](CC(=O)O)C(=O)N[C@@H](C(C)(C)C)C(=O)N[C@H](C(N)=O)CSC3) [17-69-07-N252, Ac-(17-69-07) D-Ala1 1Nal4 D-Ala5 4BrPhe9 tBuGly11] | 
 | 1.4 nM | [βAla][Sar][Sar][Sar][Sar][Sar][Sar][Sar][Sar][Sar][Sar]AC[dA]NE[1Nal][dA]CEDFYD[Tle]C-NH2 (linker 13-19-26 via TBMB; N-terminus assumed; SMILES C[C@H](NC(=O)CN(C)C(=O)CN(C)C(=O)CN(C)C(=O)CN(C)C(=O)CN(C)C(=O)CN(C)C(=O)CN(C)C(=O)CN(C)C(=O)CN(C)C(=O)CN(C)C(=O)CCN)C(=O)N[C@H]1CSCc2cc3cc(c2)CSC[C@H](NC(=O)[C@@H](C)NC(=O)[C@H](Cc2cccc4ccccc24)NC(=O)[C@H](CCC(=O)O)NC(=O)[C@H](CC(N)=O)NC(=O)[C@@H](C)NC1=O)C(=O)N[C@@H](CCC(=O)O)C(=O)N[C@@H](CC(=O)O)C(=O)N[C@@H](Cc1ccccc1)C(=O)N[C@@H](Cc1ccc(O)cc1)C(=O)N[C@@H](CC(=O)O)C(=O)N[C@@H](C(C)(C)C)C(=O)N[C@H](C(N)=O)CSC3, also called βAla-Sar10-A-C(D-Ala)NE(1Nal)(D-Ala)CEDFYD(tBuGly)C) [17-69-07-N241, bAla-Sar10-A-(17-69-07) D-Ala1 1Nal4 D-Ala5 tBuGly11] | 
